Source: the supplement of paper PMC10567573
± gives the standard deviation.

Assay: protein stability index of a GFP-peptide fusion (GPS, HEK-293T) (PSI 1-6); higher = more stable
[1] = treatment: DMSO, c terminus: a fixed tail appended
[2] = treatment: MLN4924 1 uM, 8 h, c terminus: a fixed tail appended
[3] = treatment: DMSO, c terminus: native
[4] = treatment: MLN4924 1 uM, 8 h, c terminus: native
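Further: 24-mer peptide tiles fused after GFP, lentivirally expressed, FACS-sorted into six equal bins by GFP/DsRed ratio, decoded by Illumina sequencing, PSI is the read-weighted mean bin number.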

| Sequence | protein stability index [1] | protein stability index [2] | protein stability index [3] | protein stability index [4] |
| --- | --- | --- | --- | --- |
| CEKTFNRKDHLKNHLQTHDPNKMA [PLAGL1] | 4.31 ± 0.26 | 4.42 ± 0.16 |  |  |
| LGYPYVNSVSSHASSPYISSVQSY [DLX1] | 2.29 ± 0.18 | 2.35 ± 0.27 |  |  |
| AEDGGAYLATAKVLITVEDVNDNS [PCDHGA10] | 4.4 ± 0.21 | 4.36 ± 0.29 |  |  |
| QRQVWLLFEYPESSGPARGIAIVS [KCNA3] | 2.69 ± 0.21 | 2.48 ± 0.77 |  |  |
| MPRHNYHKVAPLVQSLCAKHGIEY [FADS1] | 2.64 ± 0.36 | 2.5 ± 0.36 |  |  |
| ARKAMRNGISPIIIDNTNLHAWEM [N4BP2L1] | 2.33 ± 0.25 | 2.25 ± 0.42 |  |  |
| QNLYFNCSSPGVQACSLPASCCID [TSPAN10] | 3.12 ± 0.22 | 3.25 ± 0.2 |  |  |
| AGLEDEDVIIEVNGVNVLDEPYEK [PDZK1] | 5.05 ± 0.35 | 5 ± 0.27 |  |  |
| FQIAANLSMERYALVFGVNTFIAL [SLC19A2] | 3.2 ± 0.18 | 3.09 ± 0.17 |  |  |
| LLIANKRQSYDISIVAQVDQTGSK [CARM1] | 2.47 ± 0.25 | 2.52 ± 0.26 |  |  |
| VGGGSGDEASAATPPSSRRVWSPP [ZBTB22] | 4.66 ± 0.2 | 4.76 ± 0.34 |  |  |
| APELLGGAEPGTYLTGTINGDPES [ADAMTS4] | 5.73 ± 0.28 | 5.51 ± 0.36 |  |  |
| SGTPQAGTPSPSRSRDSNSGPEEP [RTN2] | 5.35 ± 0.068 | 5.48 ± 0.28 |  |  |
| QFSSRDCTRPVPRNGGKYCEGRRT [ADAMTS4] | 4.22 ± 0.47 | 4.51 ± 0.55 |  |  |
| EFFLEQTKKKGVKRPARLHTKPSQ [NOP53] | 3.66 ± 0.55 | 3.68 ± 0.5 |  |  |
| IKPSNIFISRTSIPNAASEEGDED [WEE1] | 4.71 ± 0.24 | 4.97 ± 0.27 |  |  |
| PTHLSNGQMSTPETPQPSPPGGSG [HNF4A] | 5.15 ± 0.15 | 4.98 ± 0.24 |  |  |
| KAPAKKANSTTTAGRDHFLTCGV [BRD3] |  |  | 2.5 ± 0.11 | 2.74 ± 0.26 |
| ELAELEDALRNLKCGSGARGGDGE [TRADD] | 4.7 ± 0.39 | 4.66 ± 0.07 |  |  |
| WENRHEGVFKFLRSEAVAQLWGQK [ELF3] | 2.43 ± 0.32 | 2.67 ± 0.35 |  |  |
| WASRREAFAQRPSSAPDLMCLSPD [CDC25B] | 3.85 ± 0.21 | 4.07 ± 0.2 |  |  |
| GPFGVNHGVELHSDVIEYAKQKLD [PCMTD2] | 3.94 ± 0.6 | 4.28 ± 0.25 |  |  |
| SRNAADKERAAGGGAGSSEDDAQS [GOLPH3] | 5.63 ± 0.24 | 5.6 ± 0.15 |  |  |

| Sequence | protein stability index [1] | protein stability index [2] | protein stability index [3] | protein stability index [4] |
| --- | --- | --- | --- | --- |
| DGLREALANLRGLSEEERSEKAML [CCDC89] | 4.93 ± 0.22 | 4.51 ± 0.44 |  |  |
| AEALGKLLQQNKSIQSLTLEWNSL [LRRC45] | 2.13 ± 0.16 | 2.25 ± 0.32 |  |  |
| KAVQYEEKNPCRTLCCFCCPCLK [STX11] |  |  | 3.59 ± 0.36 | 3.7 ± 0.084 |
| KMDMSVLEISGIIMSRVNAYQQGV [PHTF1] | 2.5 ± 0.54 | 2.48 ± 0.49 |  |  |
| QGEEPWVQVSPEFKDSAGKSPTGL [ZNF75A] | 4.87 ± 0.22 | 5.04 ± 0.22 |  |  |
| NGMAIIRPPGHHAQHSLMDGYCMF [HDAC6] | 2.37 ± 0.17 | 2.21 ± 0.31 |  |  |
| LRKGYLFMYNLVQFLGFSWIFVNL [HACD3] | 3.5 ± 0.29 | 3.22 ± 0.31 |  |  |
| QGVHQGAGFQDIPKRCLKAREHFG [TSN] | 3.31 ± 0.36 | 2.9 ± 0.27 |  |  |
| FEWTDSPNTAVSVHVSESSDDDEE [ACBD3] | 5.53 ± 0.22 | 5.56 ± 0.21 |  |  |
| RHQKIHSGEKPYKCSDCGKAFLTK [ZNF649] | 3.07 ± 0.069 | 3.25 ± 0.31 |  |  |
| TVKLLVEEKADVLARGPLNQTALH [RIPK4] | 3.35 ± 0.58 | 3.4 ± 0.37 |  |  |
| NAKLASDDFRSKYQTEQSLRLLVE [KRT34] | 3.16 ± 0.34 | 3.04 ± 0.49 |  |  |
| KENAAAPSPVRAPAPSPAKEERKT [PALM] | 5.45 ± 0.24 | 5.53 ± 0.23 |  |  |
| SASVIFEGVDIKNGTEDLPYAMKP [NSDHL] | 4.39 ± 0.12 | 4.28 ± 0.26 |  |  |
| AELHAHGPAAFVDYFERNWEPRRD [ZSWIM9] | 3.89 ± 0.3 | 4.07 ± 0.23 |  |  |
| LARKGSLKNGSMGSPVNQQPKKNN [FAM219A] | 4.85 ± 0.25 | 4.77 ± 0.065 |  |  |
| KERKLECLPPEPSPDDPESVKIIF [FAF2] | 3.97 ± 0.22 | 4.04 ± 0.16 |  |  |
| GAEPSAPGGGGSPGACPALGTKSC [RTN3] | 5.36 ± 0.26 | 5.4 ± 0.26 |  |  |
| PEVEVQVKRRRTASLSNQECQLYP [SNURF] | 4.77 ± 0.2 | 4.84 ± 0.17 |  |  |
| VNVPGSFVCQCYSGYALAEDGKRC [MATN2] | 2.75 ± 0.42 | 3.05 ± 0.46 |  |  |
| SDSESKPDQEAEPQEAAGAQGRAG [EPB41L3] | 5.54 ± 0.37 | 5.63 ± 0.22 |  |  |
| EHACTVRNLARSQSVKMKDKLKID [TAF7L] | 4.75 ± 0.18 | 4.81 ± 0.2 |  |  |
| SLLLKKPLRVDLILENTSKVPAPK [NOP53] | 2.81 ± 0.16 | 2.98 ± 0.15 |  |  |

| Sequence | protein stability index [1] | protein stability index [2] | protein stability index [3] | protein stability index [4] |
| --- | --- | --- | --- | --- |
| RLNKLRLESEGSPETLTNLRKGYL [HACD3] | 3.25 ± 0.23 | 3.35 ± 0.33 |  |  |
| QKLEREARICRLLKHPNIVRLHDS [CAMK2A] | 2.5 ± 0.13 | 2.72 ± 0.17 |  |  |
| SERAEVQRLEEQERRHREEKERRK [RSPH3] | 5.31 ± 0.47 | 5.673 ± 0.05 |  |  |
| GGPQALVNIMRTYTYEKLLWTTSR [CTNNB1] | 2.43 ± 0.6 | 2.5 ± 0.27 |  |  |
| LSLLVHNVSVMHKSLDNMPNDEHW [FBXO33] | 2.36 ± 0.31 | 2.4 ± 0.14 |  |  |
| MAAPPKAPIRVRNLTIRAGALTGK [DMRTC1] | 3.57 ± 0.33 | 3.73 ± 0.22 |  |  |
| EKMKKRKMSNSFHGIRPPQLEQPE [RHOBTB3] | 4.65 ± 0.12 | 4.77 ± 0.14 |  |  |
| PVIEELTNAGFLQTESELQELSEV [FAN1] | 4.87 ± 0.1 | 4.92 ± 0.16 |  |  |
| KSGPGDGFFSSAFQARLSGNNLHN [POMT2] | 3.04 ± 0.096 | 2.95 ± 0.41 |  |  |
| ESTELMTHLEAQNRIKGCHDHLTL [PDLIM4] | 3.83 ± 0.13 | 3.88 ± 0.15 |  |  |
| RPTSCWQLDWDELETNQQHFHALC [M1AP] | 2.39 ± 0.21 | 2.77 ± 0.38 |  |  |
| EAVKYYTLEEIQKHNHSKSTWLIL [CYB5A] | 2.44 ± 0.65 | 2.3 ± 0.24 |  |  |
| PRSTVRQKVASNHSPFSSESRALS [TBX5] | 4.11 ± 0.25 | 4.15 ± 0.19 |  |  |
| RVIKCDPDCLRACQEQIEALLESS [CCND1] | 3.3 ± 0.3 | 3.19 ± 0.2 |  |  |
| DRTFTLKTVLMIAIQLLSRMEYVH [CSNK1G1] | 3.15 ± 0.067 | 2.65 ± 1.1 |  |  |
| ASIQNHVRKREAPAPEAESKQTEK [EFHC1] | 5.36 ± 0.28 | 5.32 ± 0.37 |  |  |
| TGHGVSRGPSPVVLGSQDALPIAT [FCHO1] | 4.17 ± 0.14 | 4.14 ± 0.045 |  |  |
| AGILSNLTCNNYKNKMMVCQVGGI [CTNNB1] | 2.17 ± 0.3 | 2.11 ± 0.37 |  |  |
| EGNALQGPILQKDYVQLENQWETP [ZNF449] | 4.86 ± 0.13 | 4.68 ± 0.23 |  |  |
| ALPIATAFTEYVHAYFRGHSPSCL [FCHO1] | 2.73 ± 0.55 | 2.78 ± 0.57 |  |  |
| PLLHKDSASLEVVKKDHVALQVPR [CBY2] | 4.31 ± 0.095 | 4.3 ± 0.49 |  |  |
| FTRSQTLIQNGGEIDCVDKDGNTP [ANKRD44] | 4.74 ± 0.16 | 4.81 ± 0.21 |  |  |
| ERTEESSAVQYFQFYGYLSQQQNM [CARM1] | 2.56 ± 0.25 | 2.82 ± 0.52 |  |  |

| Sequence | protein stability index [1] | protein stability index [2] | protein stability index [3] | protein stability index [4] |
| --- | --- | --- | --- | --- |
| GYQLSDHTVGVLFNNGAHMSLLPD [PLK2] | 3.08 ± 0.2 | 3.14 ± 0.081 |  |  |
| HRWPSNMYLKQLAEYRKYIHSRKC [RHOBTB3] | 2.75 ± 0.37 | 3.19 ± 0.27 |  |  |
| EEPCSPGLLQDQGSGLSSRFEEPK [CBY2] | 5.4 ± 0.19 | 5.29 ± 0.34 |  |  |
| EIILYWKHSTIFDVGENLTVPDEF [SLC25A25] | 2.23 ± 0.85 | 2.1 ± 0.39 |  |  |
| KHNHSKSTWLILHHKVYDLTKFLE [CYB5A] | 2.6 ± 0.55 | 2.49 ± 0.41 |  |  |
| SPVRCGGPGDASPRGCGARRAGEG [WEE1] | 4.54 ± 0.19 | 4.68 ± 0.095 |  |  |
| KETELPFPKQILDQNNVIENEETG [MIA2] |  | 5.09 ± 0.62 |  |  |
| SCNDSKLEFRSFWELIGEAAKSVK [S100A14] | 2.18 ± 0.21 | 2.11 ± 0.52 |  |  |
| CYYCQAYVHHQALLDVKNIAHQNK [HDAC6] | 2.61 ± 0.33 | 2.33 ± 0.48 |  |  |
| KDRETSKVIYDFIEKTGGVEAVKN [WASL] | 3.28 ± 0.068 | 3.37 ± 0.078 |  |  |
| NEGLMKWENRHEGVFKFLRSEAVA [ELF3] | 3.01 ± 0.11 | 3.09 ± 0.22 |  |  |
| KSQLGFLNVTNYCHLAHELRLSCM [DCAF4] | 3.04 ± 0.41 | 2.57 ± 0.36 |  |  |
| AAIAFTLALFSHLVNHVNIRLQAE [SMG5] | 3.22 ± 0.4 | 3.46 ± 0.37 |  |  |
| QGKADGLYPNPRERSSFYSCAGGR [CHIT1] | 3.64 ± 0.097 | 3.87 ± 0.31 |  |  |
| SALPLAPNHLGGGAVVLGAESHAS [STX5] | 4.22 ± 0.32 | 4.32 ± 0.53 |  |  |
| KEKQSRDFQGRILSVDPEEEREEG [RHOBTB1] | 5.25 ± 0.24 | 5.46 ± 0.55 |  |  |
| ANPYWTSRGSSVSMSGGRFRCPTC [TRIM63] | 2.65 ± 0.47 | 3.1 ± 0.4 |  |  |
| LYGGMNYRRLGGGVGVIKMTHCES [KLHL20] | 2.3 ± 0.25 | 2.85 ± 0.66 |  |  |
| FIMLLIGIVLPVFYLVYFKIQASG [LYSMD4] | 2.31 ± 0.22 | 2.01 ± 0.54 |  |  |
| AFSQAISAIQALRSSVSRVFDCLK [MED27] | 3.69 ± 0.36 | 3.41 ± 0.15 |  |  |
